Key:
[1] = biological target: human CCR5 with a C-terminal glycine residue followed by the C9 nonapeptide tag (expressed from the (human; bovine) (UniProt P51681); assay: immunoprecipitation from 35S-labeled Cf2Th/PACH/synCCR5 lysate in 1% Fos-Choline-14, SDS-PAGE
[2] = biological target: human CCR5 with a C-terminal glycine residue followed by the C9 nonapeptide tag (expressed from the (human; bovine) (UniProt P51681); assay: immunoprecipitation from 35S-labeled Cf2Th/PACH/synCCR5 lysate in 1% Cymal-5, SDS-PAGE
[3] = biological target: human CCR5 with a C-terminal glycine residue followed by the C9 nonapeptide tag (expressed from the (human; bovine) (UniProt P51681); assay: immunoprecipitation from 35S-labeled Cf2Th/PACH/synCCR5 lysate in 1% DHPC, SDS-PAGE
[4] = biological target: cleavage-defective, cytoplasmic tail-truncated gp160 envelope glycoprotein of the YU2 HIV-1 primary (HIV-1 YU2 primary isolate; bovine) (UniProt P35961); assay: FACS binding curves on gp160-expressing 293T cells and gp160-proteoliposomes
UniProt P35961, sequence (P35961 whole entry, the tested form may be a part): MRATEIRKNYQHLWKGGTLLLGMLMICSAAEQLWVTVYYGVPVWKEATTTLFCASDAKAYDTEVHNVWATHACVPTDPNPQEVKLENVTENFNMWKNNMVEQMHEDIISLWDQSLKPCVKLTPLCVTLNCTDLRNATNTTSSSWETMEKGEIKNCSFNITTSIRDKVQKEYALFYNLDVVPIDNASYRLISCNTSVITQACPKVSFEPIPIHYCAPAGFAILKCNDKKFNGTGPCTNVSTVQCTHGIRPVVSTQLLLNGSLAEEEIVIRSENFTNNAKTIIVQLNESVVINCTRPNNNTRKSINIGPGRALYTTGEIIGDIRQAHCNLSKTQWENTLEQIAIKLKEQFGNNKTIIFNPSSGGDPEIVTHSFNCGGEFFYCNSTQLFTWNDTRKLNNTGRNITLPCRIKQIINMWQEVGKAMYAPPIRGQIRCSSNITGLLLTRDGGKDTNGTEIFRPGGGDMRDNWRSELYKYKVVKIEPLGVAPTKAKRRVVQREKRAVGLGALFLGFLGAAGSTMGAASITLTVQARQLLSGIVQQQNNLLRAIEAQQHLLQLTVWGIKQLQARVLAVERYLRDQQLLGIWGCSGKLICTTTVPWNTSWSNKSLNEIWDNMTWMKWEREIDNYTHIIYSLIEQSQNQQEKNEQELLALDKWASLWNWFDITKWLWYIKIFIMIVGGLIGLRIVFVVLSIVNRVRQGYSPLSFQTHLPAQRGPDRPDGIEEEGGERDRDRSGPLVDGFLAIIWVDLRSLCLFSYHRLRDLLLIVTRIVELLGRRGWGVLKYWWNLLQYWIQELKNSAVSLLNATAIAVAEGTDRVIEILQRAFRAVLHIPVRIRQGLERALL

UniProt P51681, sequence (P51681 whole entry, the tested form may be a part): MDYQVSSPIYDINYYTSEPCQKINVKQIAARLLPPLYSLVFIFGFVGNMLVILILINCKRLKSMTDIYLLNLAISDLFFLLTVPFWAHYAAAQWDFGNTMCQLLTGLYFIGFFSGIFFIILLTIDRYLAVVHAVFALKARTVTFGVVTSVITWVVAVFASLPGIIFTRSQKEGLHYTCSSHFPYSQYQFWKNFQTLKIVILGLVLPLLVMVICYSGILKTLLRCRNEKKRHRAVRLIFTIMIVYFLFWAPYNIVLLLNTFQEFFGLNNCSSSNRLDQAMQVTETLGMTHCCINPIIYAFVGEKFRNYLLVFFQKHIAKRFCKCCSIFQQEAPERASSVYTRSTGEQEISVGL

“2D7 anti-CCR5 antibody (conformation-dependent)” was tested. Which percentage of conformationally intact CCR5 (CCR5 precipitated by 2D7 relative to that precipitated by 1D4) [1] did it give?
Its percentage of conformationally intact CCR5 (CCR5 precipitated by 2D7 relative to that precipitated by 1D4) is 13%.

What about the percentage of conformationally intact CCR5 (CCR5 precipitated by 2D7 relative to that precipitated by 1D4) [2] of the same substance?
Its percentage of conformationally intact CCR5 (CCR5 precipitated by 2D7 relative to that precipitated by 1D4) is 98%.

What about the percentage of conformationally intact CCR5 (CCR5 precipitated by 2D7 relative to that precipitated by 1D4) [3] of the same substance?
Its percentage of conformationally intact CCR5 (CCR5 precipitated by 2D7 relative to that precipitated by 1D4) is 10%.

For CD4BS antibody IgGb12, which EC50 [4] is on record?
Its EC50 is under 1 µg/mL.

— patent publication US20010034432A1
